Test results taken from US20210230570.

Key:
[1] = biological target: plasma purified human AT-III (antithrombin III), in complex with full-length unfractionated heparin (AT-III/UFH)
[2] = biological target: Factor X, P00742
[3] = biological target: Factor X (FX), P00742
Chain of Factor X (FX), P00742 (P00742 whole entry, looked up): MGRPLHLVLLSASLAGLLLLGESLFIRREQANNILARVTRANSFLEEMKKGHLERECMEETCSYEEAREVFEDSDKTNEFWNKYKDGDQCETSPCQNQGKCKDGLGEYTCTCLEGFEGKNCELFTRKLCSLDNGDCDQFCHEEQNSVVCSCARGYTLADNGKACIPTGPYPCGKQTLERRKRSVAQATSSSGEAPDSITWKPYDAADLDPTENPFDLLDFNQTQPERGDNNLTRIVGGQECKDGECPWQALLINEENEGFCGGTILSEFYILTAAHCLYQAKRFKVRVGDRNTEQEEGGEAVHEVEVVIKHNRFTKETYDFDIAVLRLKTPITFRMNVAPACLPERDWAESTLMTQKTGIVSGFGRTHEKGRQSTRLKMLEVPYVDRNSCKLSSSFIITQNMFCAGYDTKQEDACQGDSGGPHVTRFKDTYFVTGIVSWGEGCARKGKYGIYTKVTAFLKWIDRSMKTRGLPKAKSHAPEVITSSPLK

Chain of Factor X, P00742 (P00742 whole entry, looked up): as above

| Protein | K0.5-mut/K0.5-wt (against Catalyst Biosciences WT FIXa) [1] | kcat of FX activation by FIXa (Xase complex with FVIIIa, PC/PS vesicles, Ca2+) [2] [s⁻¹] | KM (nM); Catalytic activity of FIXa variants (KM) [3] [nM] | kcat of FX activation by FIXa in the Xase complex (FVIIIa, PC/PS vesicles, Ca2+) [3] [s⁻¹] | KM [3] [µM] | kcat/KM [3] [M⁻¹ s⁻¹] |
| --- | --- | --- | --- | --- | --- | --- |
| FIXa-Y259F/K265T/Y345T (protein) chain 1: YNSGKLEEFVQGNLERECMEEKCSFEEAREVFENTERTTEFWKQYVDGDQCESNPCLNGGSCKDDINSYECWCPFGFEGKNCELDVTCNIKNGRCEQFCKNSADNKVVCSCTEGYRLAENQKSCEPAVPFPCGRVSVSQTSKLTR chain 2: VVGGEDAKPGQFPWQVVLNGKVDAFCGGSIVNEKWIVTAAHCVETGVKITVVAGEHNIEETEHTEQKRNVIRIIPHHNFNAAINTYNHDIALLELDEPLVLNSYVTPICIADKEYTNIFLKFGSGYVSGWGRVFHKGRSALVLQYLRVPLVDRATCLRSTKFTITNNMFCAGFHEGGRDSCQGDSGGPHVTEVEGTSFLTGIISWGEECAMKGKYGIYTKVSRYVNWIKEKTKLT | 0.3 | 1.7 |  |  |  |  |
| FIXa-Y155F/N260S/R318Y/R338E/R403E/E410N (protein) chain 1: YNSGKLEEFVQGNLERECMEEKCSFEEAREVFENTERTTEFWKQYVDGDQCESNPCLNGGSCKDDINSYECWCPFGFEGKNCELDVTCNIKNGRCEQFCKNSADNKVVCSCTEGYRLAENQKSCEPAVPFPCGRVSVSQTSKLTR chain 2: VVGGEDAKPGQFPWQVVLNGKVDAFCGGSIVNEKWIVTAAHCVETGVKITVVAGEHNIEETEHTEQKRNVIRIIPHHNYSAAINKYNHDIALLELDEPLVLNSYVTPICIADKEYTNIFLKFGSGYVSGWGRVFHKGYSALVLQYLRVPLVDRATCLESTKFTIYNNMFCAGFHEGGRDSCQGDSGGPHVTEVEGTSFLTGIISWGEECAMKGKYGIYTKVSEYVNWIKNKTKLT | 501 |  | 83.9 | 5.8 |  |  |
| FIXa-Y155F/K228N/R318Y/R338E/R403E/E410N (protein) chain 1: YNSGKLEEFVQGNLERECMEEKCSFEEAREVFENTERTTEFWKQYVDGDQCESNPCLNGGSCKDDINSYECWCPFGFEGKNCELDVTCNIKNGRCEQFCKNSADNKVVCSCTEGYRLAENQKSCEPAVPFPCGRVSVSQTSKLTR chain 2: VVGGEDAKPGQFPWQVVLNGKVDAFCGGSIVNEKWIVTAAHCVETGVNITVVAGEHNIEETEHTEQKRNVIRIIPHHNYNAAINKYNHDIALLELDEPLVLNSYVTPICIADKEYTNIFLKFGSGYVSGWGRVFHKGYSALVLQYLRVPLVDRATCLESTKFTIYNNMFCAGFHEGGRDSCQGDSGGPHVTEVEGTSFLTGIISWGEECAMKGKYGIYTKVSEYVNWIKNKTKLT | > 517 | 9.7 |  |  |  |  |
| FIXa-R318Y/R338E/N346D/R403E/E410N (protein) chain 1: YNSGKLEEFVQGNLERECMEEKCSFEEAREVFENTERTTEFWKQYVDGDQCESNPCLNGGSCKDDINSYECWCPFGFEGKNCELDVTCNIKNGRCEQFCKNSADNKVVCSCTEGYRLAENQKSCEPAVPFPCGRVSVSQTSKLTR chain 2: VVGGEDAKPGQFPWQVVLNGKVDAFCGGSIVNEKWIVTAAHCVETGVKITVVAGEHNIEETEHTEQKRNVIRIIPHHNYNAAINKYNHDIALLELDEPLVLNSYVTPICIADKEYTNIFLKFGSGYVSGWGRVFHKGYSALVLQYLRVPLVDRATCLESTKFTIYDNMFCAGFHEGGRDSCQGDSGGPHVTEVEGTSFLTGIISWGEECAMKGKYGIYTKVSEYVNWIKNKTKLT | > 517 |  | 77.7 | 2.5 |  |  |
| FIXa-N260S/R318Y/R338E/R403E/E410N (protein) chain 1: YNSGKLEEFVQGNLERECMEEKCSFEEAREVFENTERTTEFWKQYVDGDQCESNPCLNGGSCKDDINSYECWCPFGFEGKNCELDVTCNIKNGRCEQFCKNSADNKVVCSCTEGYRLAENQKSCEPAVPFPCGRVSVSQTSKLTR chain 2: VVGGEDAKPGQFPWQVVLNGKVDAFCGGSIVNEKWIVTAAHCVETGVKITVVAGEHNIEETEHTEQKRNVIRIIPHHNYSAAINKYNHDIALLELDEPLVLNSYVTPICIADKEYTNIFLKFGSGYVSGWGRVFHKGYSALVLQYLRVPLVDRATCLESTKFTIYNNMFCAGFHEGGRDSCQGDSGGPHVTEVEGTSFLTGIISWGEECAMKGKYGIYTKVSEYVNWIKNKTKLT | > 517 |  | 72.4 | 3.8 |  |  |
| FIXa-R318Y/R338E/E410N/T412V (protein) chain 1: YNSGKLEEFVQGNLERECMEEKCSFEEAREVFENTERTTEFWKQYVDGDQCESNPCLNGGSCKDDINSYECWCPFGFEGKNCELDVTCNIKNGRCEQFCKNSADNKVVCSCTEGYRLAENQKSCEPAVPFPCGRVSVSQTSKLTR chain 2: VVGGEDAKPGQFPWQVVLNGKVDAFCGGSIVNEKWIVTAAHCVETGVKITVVAGEHNIEETEHTEQKRNVIRIIPHHNYNAAINKYNHDIALLELDEPLVLNSYVTPICIADKEYTNIFLKFGSGYVSGWGRVFHKGYSALVLQYLRVPLVDRATCLESTKFTIYNNMFCAGFHEGGRDSCQGDSGGPHVTEVEGTSFLTGIISWGEECAMKGKYGIYTKVSRYVNWIKNKVKLT | > 517 |  | 29.7 | 5.2 | 0.0236 | 2.4e+08 |
| FIXa-D104N/K106S/N260S/R318Y/R338E/R403E/E410N (protein) chain 1: YNSGKLEEFVQGNLERECMEEKCSFEEAREVFENTERTTEFWKQYVDGDQCESNPCLNGGSCKDDINSYECWCPFGFEGKNCELDVTCNIKNGRCEQFCKNSANNSVVCSCTEGYRLAENQKSCEPAVPFPCGRVSVSQTSKLTR chain 2: VVGGEDAKPGQFPWQVVLNGKVDAFCGGSIVNEKWIVTAAHCVETGVKITVVAGEHNIEETEHTEQKRNVIRIIPHHNYSAAINKYNHDIALLELDEPLVLNSYVTPICIADKEYTNIFLKFGSGYVSGWGRVFHKGYSALVLQYLRVPLVDRATCLESTKFTIYNNMFCAGFHEGGRDSCQGDSGGPHVTEVEGTSFLTGIISWGEECAMKGKYGIYTKVSEYVNWIKNKTKLT | > 517 |  | 61.1 | 5.4 |  |  |
| FIXa-D85N/K228N/R318Y/R338E/R403E/E410N (protein) chain 1: YNSGKLEEFVQGNLERECMEEKCSFEEAREVFENTERTTEFWKQYVDGDQCESNPCLNGGSCKDDINSYECWCPFGFEGKNCELNVTCNIKNGRCEQFCKNSADNKVVCSCTEGYRLAENQKSCEPAVPFPCGRVSVSQTSKLTR chain 2: VVGGEDAKPGQFPWQVVLNGKVDAFCGGSIVNEKWIVTAAHCVETGVNITVVAGEHNIEETEHTEQKRNVIRIIPHHNYNAAINKYNHDIALLELDEPLVLNSYVTPICIADKEYTNIFLKFGSGYVSGWGRVFHKGYSALVLQYLRVPLVDRATCLESTKFTIYNNMFCAGFHEGGRDSCQGDSGGPHVTEVEGTSFLTGIISWGEECAMKGKYGIYTKVSEYVNWIKNKTKLT | > 517 | 6 |  |  |  |  |
| FIXa-R318Y/R338E/T412A (protein) chain 1: YNSGKLEEFVQGNLERECMEEKCSFEEAREVFENTERTTEFWKQYVDGDQCESNPCLNGGSCKDDINSYECWCPFGFEGKNCELDVTCNIKNGRCEQFCKNSADNKVVCSCTEGYRLAENQKSCEPAVPFPCGRVSVSQTSKLTR chain 2: VVGGEDAKPGQFPWQVVLNGKVDAFCGGSIVNEKWIVTAAHCVETGVKITVVAGEHNIEETEHTEQKRNVIRIIPHHNYNAAINKYNHDIALLELDEPLVLNSYVTPICIADKEYTNIFLKFGSGYVSGWGRVFHKGYSALVLQYLRVPLVDRATCLESTKFTIYNNMFCAGFHEGGRDSCQGDSGGPHVTEVEGTSFLTGIISWGEECAMKGKYGIYTKVSRYVNWIKEKAKLT | 396 |  |  | 7 |  |  |
